In paper PMC2572732, “Structural Coupling of SH2-Kinase Domains Links Fes and Abl Substrate Recognition and Kinase Activation” (Cell, 2008):

Test system: Fes; GST-cortactin (residues 382–550)
Experiment: In vivo kinase assay: Fes autophosphorylation and GST-cortactin phosphorylation in transfected HEK293T cells
Assay type: cell-based, human
Conditions: HEK293T cells, anti-pTyr western blot, in words
Excerpt: To pursue the relevance of the observed interdomain interactions, we studied the effects of mutating residues in the SH2-kinase interface on human Fes activity. To this end, we monitored Fes autophosphorylation and transphosphorylation activity in transfected cells, using cortactin (residues 382–550) fused to GST as an exogenous substrate (Figures 2A and 2B). In an effort to perturb the close interaction between the SH2 and kinase domains, we mutated the conserved glycine residue (G463) located in the tightly packed interface between the SH2 N terminus and the kinase β4/β5 loop to valine (mutant G/V). Introducing this bulky side chain would be expected to sterically hinder alignment of the SH2 and kinase domains, resulting in an altered domain packing. Wild-type (WT) and G/V mutant full-length human Fes, each with an N-terminal Flag epitope, were expressed in HEK293T cells together with GST-cortactin.
Wild-type p130^Gag-Fps and the RX15m and AX9m mutants ([Stone et al., 1984]) were subcloned into the vector pRK5-myc ([Winberg et al., 2000]). Full-length human Fes was cloned into the vector pCMV7.1-3xFlag (Sigma, St. Louis, MO). Site-directed mutagenesis was performed using the QuickChange® II XL Kit (Stratagene, La Jolla, CA) following the manufacturer's directions. A GST-tagged C-terminal fragment of human cortactin (residues 382–550, accession Q14247) was prepared by PCR from cDNA (accession BC008799) and cloned into pEBG vector (gift from C. Duckett, University of Michigan Medical School, Ann Arbor).
HEK293T cells were maintained in Dulbecco's modified Eagle's medium supplemented with 10% (vol/vol) fetal bovine serum, 100 units/ml penicillin G sodium, and 100 μg/ml streptomycin and incubated at 37°C, 5% CO2.
Flag-tagged Fes or Myc-tagged p130^Gag-Fps and mutants thereof were cotransfected with GST-cortactin into HEK293T cells. After 24 hr, cells were lysed with NP-40 cell lysis buffer (50 mM Tris-HCl [pH 7.5], 150 mM NaCl, 1% NP-40, and 1 mM EDTA) that contained 1 mM phenylmethylsulfonyl fluoride, 10 μg/ml leupeptin, 10 μg/ml aprotinin, and 10 μg/ml pepstatin A. Cell lysates, normalized for protein concentration, were used in anti-Flag M2 antibody-agarose (Sigma) or anti-Myc antibody immunoprecipitations or glutathione sepharose affinity precipitations. Associated proteins were resolved using SDS-PAGE and analyzed by western blotting using anti-Flag M2 (Sigma), anti-c-Myc 9E10 (Santa Cruz), HRP-conjugated anti-GST (Santa Cruz), or anti-pTyr 4G10 (Upstate) antibodies.

B1: R/M: Fes with R483 in the SH2 pTyr-binding pocket substituted with methionine (protein, UniProt P07332 1-822, looked up, variant R483M)
Tyrosine-protein kinase …: MGFSSELCSPQGHGVLQQMQEAELRLLEGMRKWMAQRVKSDREYAGLLHHMSLQDSGGQSRAISPDSPISQSWAEITSQTEGLSRLLRQHAEDLNSGPLSKLSLLIRERQQLRKTYSEQWQQLQQELTKTHSQDIEKLKSQYRALARDSAQAKRKYQEASKDKDRDKAKDKYVRSLWKLFAHHNRYVLGVRAAQLHHQHHHQLLLPGLLRSLQDLHEEMACILKEILQEYLEISSLVQDEVVAIHREMAAAAARIQPEAEYQGFLRQYGSAPDVPPCVTFDESLLEEGEPLEPGELQLNELTVESVQHTLTSVTDELAVATEMVFRRQEMVTQLQQELRNEEENTHPRERVQLLGKRQVLQEALQGLQVALCSQAKLQAQQELLQTKLEHLGPGEPPPVLLLQDDRHSTSSSEQEREGGRTPTLEILKSHISGIFRPKFSLPPPLQLIPEVQKPLHEQLWYHGAIPRAEVAELLVHSGDFLVMESQGKQEYVLSVLWDGLPRHFIIQSLDNLYRLEGEGFPSIPLLIDHLLSTQQPLTKKSGVVLHRAVPKDKWVLNHEDLVLGEQIGRGNFGEVFSGRLRADNTLVAVKSCRETLPPDLKAKFLQEARILKQYSHPNIVRLIGVCTQKQPIYIVMELVQGGDFLTFLRTEGARLRVKTLLQMVGDAAAGMEYLESKCCIHRDLAARNCLVTEKNVLKISDFGMSREEADGVYAASGGLRQVPVKWTAPEALNYGRYSSESDVWSFGILLWETFSLGASPYPNLSNQQTREFVEKGGRLPCPELCPDAVFRLMEQCWAYEPGQRPSFSTIYQELQSIRKRHR
With B1 the Fes autophosphorylation (Flag-Fes) was “failed to autophosphorylate” and the transphosphorylation of cortactin (GST-cortactin) was “significantly reduced ability to transphosphorylate cortactin”.
